Blank lines part the entries; values can stand above or below the molecule they belong to.
Columns and labels:
[1] = target: T1, acyl CoA:cholesterol acyl transferase (Mus musculus, UniProt Q61263); assay: Incorporation of [14C]oleate into cholesteryl ester in cholesterol-laden macrophages (ACAT activity); assay type: cell-based, murine; conditions: for relative acyl CoA:cholesterol acyl transferase activity: liposomes containing 0.5 μM synthetic peptide, 6 hour incubation, cholesterol-laden murine cells
T1 construct: host or cells: J774 mouse macrophages, cholesterol-loaded
T1 sequence (Q61263 1-540): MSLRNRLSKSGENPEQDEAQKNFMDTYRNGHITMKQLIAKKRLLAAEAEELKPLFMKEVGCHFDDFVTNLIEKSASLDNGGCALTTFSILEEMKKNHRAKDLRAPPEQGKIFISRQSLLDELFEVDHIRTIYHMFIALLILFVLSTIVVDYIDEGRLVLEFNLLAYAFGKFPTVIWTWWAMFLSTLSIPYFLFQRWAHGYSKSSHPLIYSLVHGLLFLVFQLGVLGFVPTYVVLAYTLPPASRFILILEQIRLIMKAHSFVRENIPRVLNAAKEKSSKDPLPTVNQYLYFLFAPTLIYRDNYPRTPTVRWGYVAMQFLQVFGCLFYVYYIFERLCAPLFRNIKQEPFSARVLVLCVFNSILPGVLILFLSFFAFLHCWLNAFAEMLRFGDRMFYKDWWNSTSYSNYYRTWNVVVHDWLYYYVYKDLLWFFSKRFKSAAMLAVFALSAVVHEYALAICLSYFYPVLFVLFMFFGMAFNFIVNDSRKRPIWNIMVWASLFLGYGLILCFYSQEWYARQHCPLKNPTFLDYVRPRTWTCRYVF

[2] = system: [3H]-cholesterol-loaded J774 macrophages; assay: In vivo cholesterol efflux to plasma in mice injected with [3H]-cholesterol-loaded J774 macrophages; conditions: for [3H]-cholesterol efflux as plasma radioactivity (dpm) (FIG. 1): intravenous liposomes containing 0.5 μM peptide, 24 hours after macrophages
Experimental: In these experiments, in vivo cholesterol export was determined in mice injected with J774 macrophages cholesterol-loaded with RBC membranes and [^3H]-cholesterol. Two hundred thousand macrophages in 100:1 PBS were injected into each mouse through the tail vein. At various time points thereafter, approximately 25:1 of blood were collected from the tail vein of each animal into heparinized capillary tubes. The tubes were then centrifuged for 5 minutes in an Adams Autocrit Centrifuge to separate red blood cells from plasma. Cholesterol efflux was determined by measuring the appearance of [^3H]-cholesterol in plasma by scintillation spectrometry. To study whether export of cholesterol from J774 cells to plasma was influenced by non-liposome formulated D-27mer peptide (SEQ ID NO:10), 24 hours after injection of cholesterol-loaded J774 macrophages into mice, the same animals received, by intravenous injection, 30 μg, 60 μg, 150 μg, 225 μg, 300 μg or 600 μg of D-27mer. All these amounts of D-peptides were dissolved in 100:l of phosphate buffered saline and injected through the tail vein of each animal.
Additional in vivo studies have also been conducted wherein mice were first injected intravenously with [^3H]cholesterol-laden macrophages and then injected 24 hours later with liposomes containing 0.5 μM of synthetic peptides corresponding to amino acid residues 1-20, 21-50, 51-80 or 74-103 of murine SAA2.1. Results from this study are depicted in FIG. 1. At time points indicated in the graph of FIG. 1, approximately 25 μl of blood were collected from the tail vein of each animal. The blood samples were centrifuged to separate the red blood cells from the plasma and the [^3H]-cholesterol in plasma was determined by scintillation counting. Results are mean±SEM of four determinations.
To determine cholesterol export in vivo, J774 macrophages were cholesterol-loaded with red blood cell membranes and [^3H]-cholesterol as described above. Cells were washed four times with PBS/BSA and then detached from the culture dishes. Five million cells in 200 μl DMEM were injected into control mice or inflamed mice through the tail vein. At various time points, approximately 25 μl of blood were collected from the tail vein of each animal into heparinized capillary tubes and then centrifuged for 5 minutes in an Adams Autocrit Centrifuge to separate red blood cells from plasma. Cholesterol efflux was determined by measuring the appearance of [^3H]-cholesterol in plasma by scintillation spectrometry.
J774 cells cultured in 6-well plates were enriched with cholesterol by incubating with red blood cell (RBC) membrane fragments (175:g as cholesterol) that had been previously labeled with 0.5:Ci/ml [^3H]-cholesterol at 37° C. for 24 hours in 0.2% bovine serum albumin (BSA). After loading with the labelled RBC membrane for 6 hours, cells were then washed with phosphate-buffered saline/BSA (PBS/BSA) three times followed by an 18 hour equilibration period during which monolayers were exposed to DMEM/BSA. To determine cholesterol export in vivo, J774 macrophages were cholesterol-loaded with RBC membranes and [^3H]-cholesterol as described previously above. Cells were washed four times with PBS/BSA and then detached from the culture dishes. Two hundred thousand cells in 100:l PBS were injected into mice through the tail vein. At various time points thereafter, approximately 25:l of blood were collected from the tail vein of each animal into heparinized capillary tubes. These tubes were then centrifuged for 5 minutes in an Adams Autocrit Centrifuge to separate red blood cells from plasma. Cholesterol efflux was determined by measuring the appearance of [^3H]-cholesterol in plasma by scintillation spectrometry. […]

- relative acyl CoA:cholesterol acyl transferase activity [1]: no significant effect
Molecule: DTIADQEANRHGRSGKDPNYYRPPGLPDKY [SEQ ID NO:4, synthetic peptide, residues 74-103 of murine SAA2.1]
- [3H]-cholesterol efflux as plasma radioactivity (dpm) (FIG. 1) [2]: dramatically increased

- relative acyl CoA:cholesterol acyl transferase activity [1]: two-fold decrease
Molecule: GFFSFVHEAFQGAGDMWRAY [SEQ ID NO:1, synthetic peptide, residues 1-20 of murine SAA2.1]
- [3H]-cholesterol efflux as plasma radioactivity (dpm) (FIG. 1) [2]: dramatically increased

B1: GFFSFVHEAFQGAGDMWRAYTDMKEANWKNSDKYFHARGNYDAAQRGPGGVWAAEKISD GREAFQEFFGRGHEDTIADQEANRHGRSGKDPNYYRPPGLPDKY (protein, listed as Mus musculis)
chain: GFFSFVHEAFQGAGDMWRAYTDMKEANWKNSDKYFHARGNYDAAQRGPGGVWAAEKISDGREAFQEFFGRGHEDTIADQEANRHGRSGKDPNYYRPPGLPDKY
notes: full length murine serum amyloid A isoform 2.1 purified from acute phase plasma
- acyl CoA:cholesterol acyl transferase activity in intact cholesterol-laden macrophages ([1]; lipoproteins or protein liposomes, tissue culture): marked reduction of acyl CoA:cholesterol acyl transferase activity
- cholesterol release from macrophages pretreated with protein liposomes and injected into un-inflamed mice ([2]; cholesterol-loaded macrophages pretreated with liposomes, injected intravenously): recapitulated the major cholesterol releasing effect
- radiolabeled cholesterol exported in the plasma (FIG. 15) ([2]; non-liposome formulated, in 100 μl PBS, intravenous, 15 μg/mouse peptide or 75 μg/mouse full length protein): exceeded the increase observed following administration of the D-27mer peptide
